Columns and labels:
FcγRIIb = FcγRIIb (UniProt P31994); test: in vitro binding, method not stated for the single mutant
FcγRIIa (H) variant = FcγRIIa (H) variant (UniProt P12318); test: as above
UniProt P12318, sequence (P12318 34-217 limits assumed, change not shown): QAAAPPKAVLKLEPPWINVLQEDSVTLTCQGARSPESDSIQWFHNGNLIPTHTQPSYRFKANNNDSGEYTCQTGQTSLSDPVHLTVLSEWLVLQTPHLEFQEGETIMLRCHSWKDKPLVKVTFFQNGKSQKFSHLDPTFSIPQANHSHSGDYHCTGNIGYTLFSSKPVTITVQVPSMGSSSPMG

UniProt P31994, sequence (P31994 43-217 limits assumed): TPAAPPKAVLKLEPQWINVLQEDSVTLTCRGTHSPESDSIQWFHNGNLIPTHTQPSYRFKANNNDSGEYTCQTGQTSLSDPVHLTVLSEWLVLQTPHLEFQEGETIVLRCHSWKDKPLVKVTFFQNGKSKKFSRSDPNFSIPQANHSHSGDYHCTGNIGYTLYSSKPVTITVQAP

| fold improvement of binding against wild type (FcγRIIb) | fold reduction of binding against wild type (FcγRIIb) | fold reduction of binding against wild type (FcγRIIa (H) variant) | Substance |
| --- | --- | --- | --- |
| 4 fold | – | – | Fc variant K326E (single mutation) (antibody) |
| – | 100 fold | 100 fold | Fc variant D270N (single mutation) (antibody) |

Source: US20130108623A1
